We go through two molecules from patent US20140030278A1 (published 2014).

For assay [1], the target named is T1, Recombinant human TNF-alpha (human, UniProt P01375 77-233). Put plainly: ELISA of unbound rhTNF-alpha after pre-incubation; printed as 4.095e-009 g/ml. In general terms: In an ELISA, binding on a coated surface is turned into a signal by an enzyme label.
The target of assay [2] is T1, Recombinant human TNF-alpha. Put plainly: ELISA of unbound rhTNF-alpha after pre-incubation; printed as 6.116e-009 g/ml.

T1 sequence (P01375 77-233): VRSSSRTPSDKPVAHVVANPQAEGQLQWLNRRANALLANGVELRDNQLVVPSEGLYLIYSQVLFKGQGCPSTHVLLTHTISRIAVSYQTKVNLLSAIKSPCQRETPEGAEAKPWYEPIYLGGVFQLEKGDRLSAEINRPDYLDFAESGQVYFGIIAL

B1: etanercept (ENBREL®), non-PEGylated (Fc fusion)
chain: LPAQVAFTPYAPEPGSTCRLREYYDQTAQMCCSKCSPGQHAKVFCTKTSDTVCDSCEDSTYTQLWNWVPECLSCGSRCSSDQVETQACTREQNRICTCRPGWYCALSKQEGCRLCAPLRKCRPGFGVARPGTETSDVVCKPCAPGTFSNTTSSTDICRPHQICNVVAIPGNASMDAVCTSTSPTRSMAPGAVHLPQPVSTRSQHTQPTPEPSTAPSTSFLLPMGPSPPAEGSTGDEPKSCDKTHTCPPCPAPELLGGPSVFLFPPKPKDTLMISRTPEVTCVVVDVSHEDPQVKFNWYVDGVQVHNAKTKPREQQYNSTYRVVSVLTVLHQNWLDGKEYKCKVSNKALPAPIEKTISKAKGQPREPQVYTLPPSREEMTKNQVSLTCLVKGFYPSDIAVEWESNGQPENNYKTTPPVLDSDGSFFLYSKLTVDKSRWQQGNVFSCSVMHEALHNHYTQKSLSLSPGK
On to B1, for which the IC50 (as a rule, the concentration that gives 50% inhibition) in assay [1] is 4.09 ng/mL.

B2: PEG20-etanercept (10 eq) (Fc fusion)
chain: B1 chain
modifications: 20 KDa PEG (PEG20) conjugated via NHS-ester PEG reagent at 10 times molar excess; sites not stated
Turning to B2, the IC50 in assay [2] came out at 6.12 ng/mL.
